Data reported in paper PMC9136124.

How the values were obtained:
[1] = target: FakA linker region, central domain (FakA_L) (Staphylococcus aureus); experiment: AUC; sedimentation velocity of single constructs, c(s) model in SEDFIT, 20 mM Tris, pH 7.5, 200 mM NaCl, 5 mM DTT, 20 °C, 50,000 rpm, Rayleigh interference optics
[2] = target: FakA, kinase component of fatty acid kinase (Staphylococcus aureus) (Staphylococcus aureus); experiment: SEC-SAXS; Superdex 200 10/300, 20 mM Tris, pH 7.5, 200 mM NaCl, 1% glycerol; 300 μl FakA (4 mg/ml), FakA_NL (6.2 mg/ml) or FakA_LC (6 mg/ml) loaded
[3] = target: FakA_LC (FakA_L and FakA_C domains connected) (Staphylococcus aureus); experiment: as above
[4] = target: FakA_LC (FakA_L and FakA_C domains connected) (Staphylococcus aureus); experiment: SEC; analytical size exclusion chromatography on a S-75 13/300 column, 20 mM Tris, pH 7.5, 200 mM NaCl; oligomerization state estimated from a standard curve of protein standards
[5] = target: FakA_NL (FakA_N and FakA_L domains connected) (Staphylococcus aureus); experiment: SEC-SAXS; Superdex 200 10/300, 20 mM Tris, pH 7.5, 200 mM NaCl, 1% glycerol; 300 μl FakA (4 mg/ml), FakA_NL (6.2 mg/ml) or FakA_LC (6 mg/ml) loaded
[6] = target: FakA_NL (FakA_N and FakA_L domains connected) (Staphylococcus aureus); experiment: SEC; analytical size exclusion chromatography on a S-75 13/300 column, 20 mM Tris, pH 7.5, 200 mM NaCl; oligomerization state estimated from a standard curve of protein standards
[7] = target: FakA_αβ bundle with helix (Staphylococcus aureus); experiment: AUC; sedimentation velocity of single constructs, c(s) model in SEDFIT, 20 mM Tris, pH 7.5, 200 mM NaCl, 5 mM DTT, 20 °C, 50,000 rpm, Rayleigh interference optics
[8] = target: FakA C terminus, FakB substrate-binding domain (FakA_C) (Staphylococcus aureus); experiment: AUC; FakB1 mixed with each isolated FakA domain; c(s) model by the text, 'sedimentation equilibrium' by the legend of Figure 4; 20 mM Tris, pH 7.5, 200 mM NaCl, 5 mM DTT, 20 °C; apparent KD from equilibrium concentrations of duplicate experiments, single site equilibrium model

For “FakA linker region, central domain (FakA_L) (domain or fragment)”, the stoichiometry N [1] was 2.

“FakA, kinase component of fatty acid kinase (Staphylococcus aureus) (enzyme)” was tested, and the stoichiometry N [2] was 2.

“FakA_LC (FakA_L and FakA_C domains connected) (domain or fragment)” showed a stoichiometry N [3] of 2 and a stoichiometry N [4] of 2.

Work on “FakA_NL (FakA_N and FakA_L domains connected) (domain or fragment)” yielded a stoichiometry N [5] of 2 and a stoichiometry N [6] of 2.

“FakA_αβ bundle with helix (domain or fragment)” showed a stoichiometry N [7] of 2.

With “FakB1, fatty acid binding protein component of fatty acid kinase (Staphylococcus aureus) (from UniProt X5EH37 1-288) (natural protein)” the Kd [8] was 16 µM and the stoichiometry N [8] was 1.
